Bridge positions count the residues as written; N and C are the ends. Square brackets hold non-standard residues; d marks the D form. 1Nal = N[C@@H](Cc1cccc2ccccc12)C(=O)O; 2Nal = N[C@@H](Cc1ccc2ccccc2c1)C(=O)O; d2Nal = N[C@H](Cc1ccc2ccccc2c1)C(=O)O; βAla = NCCC(=O)O

The text below walks through data of patent publication US20120135923A1 (IPSEN PHARMA S A S, published 2012).

Common to all, as to experiment: [125I]-NDP-α-MSH competition, membranes
Experiment [1] has as its target T1, human melanocortin receptor subtype 5 (hMC5-R) (human, UniProt P33032 1-325).
T1 construct: whole, on cells; membranes of CHO-K1 cells
The procedure:
(§1) Cellular membranes used for the in vitro receptor binding assays were obtained from transgenic CHO-K1 cells stably expressing hMC-R receptor subtypes 1, 3, 4 or 5. […] The pellets were resuspended in the same buffer and centrifuged at 50,000 g for 10 minutes at approximately 4° C. The washed pellets containing the cellular membranes were stored at approximately −80° C.
(§2) Competitive inhibition of [¹²⁵I](Tyr²)-(Nle⁴-D-Phe⁷)α-MSH ([¹²⁵I]-NDP-α-MSH, Amersham Biosciences®) binding was carried out in polypropylene 96 well plates. Cell membranes (1-10 μg protein/well) prepared as described above were incubated in 50 mM Tris-HCl at pH 7.4 containing 0.2% bovine serum albumin (BSA), 5 mM MgCl₂, 1 mM CaCl₂ and 0.1 mg/mL bacitracin, with increasing concentrations of the test compound and 0.1-0.3 nM […] for approximately 90-120 minutes at approximately 37° C. Bound [¹²⁵I]-NDP-α-MSH ligand was separated from free [¹²⁵I]-NDP-α-MSH by filtration through GF/C glass fiber filter plates (Unifilter®; Packard) presoaked with 0.1% (w/v) polyethylenimine (PEI), using a Packard Filtermate® harvester. Filters were washed three times with 50 mM Tris-HCl at pH 7.4 at a temperature of approximately 0-4° C. and then assayed for radioactivity using a Packard Topcount® scintillation counter. Binding data were analyzed by computer-assisted non-linear regression analysis (XL fit; IDBS).

Experiment [2] concerns the target T2, human melanocortin receptor subtype 3 (hMC3-R) (human, UniProt P41968 1-323).
T2 construct: whole, on cells; membranes of CHO-K1 cells
The protocol:
as §1, §2

In experiment [3] the target is T3, human melanocortin receptor subtype 4 (hMC4-R) (human, UniProt P32245 1-332).
T3 construct: whole, on cells; membranes of CHO-K1 cells
The protocol:
as §1, §2

Experiment [4] has as its target T4, human melanocortin receptor subtype 1 (hMC1-R) (human, UniProt Q01726 1-317).
T4 construct: whole, on cells; membranes of CHO-K1 cells
The protocol:
as §1, §2

T2 sequence (P41968 whole entry): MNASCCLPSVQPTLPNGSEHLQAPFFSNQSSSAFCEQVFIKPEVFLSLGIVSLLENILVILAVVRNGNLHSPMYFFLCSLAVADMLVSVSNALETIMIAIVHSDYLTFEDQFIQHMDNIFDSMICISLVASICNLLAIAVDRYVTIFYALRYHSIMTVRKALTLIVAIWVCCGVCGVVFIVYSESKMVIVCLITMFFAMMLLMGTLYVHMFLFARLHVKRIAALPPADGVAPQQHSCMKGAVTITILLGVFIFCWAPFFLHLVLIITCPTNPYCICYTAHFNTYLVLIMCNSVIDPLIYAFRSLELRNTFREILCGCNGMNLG
T1 sequence (P33032 whole entry): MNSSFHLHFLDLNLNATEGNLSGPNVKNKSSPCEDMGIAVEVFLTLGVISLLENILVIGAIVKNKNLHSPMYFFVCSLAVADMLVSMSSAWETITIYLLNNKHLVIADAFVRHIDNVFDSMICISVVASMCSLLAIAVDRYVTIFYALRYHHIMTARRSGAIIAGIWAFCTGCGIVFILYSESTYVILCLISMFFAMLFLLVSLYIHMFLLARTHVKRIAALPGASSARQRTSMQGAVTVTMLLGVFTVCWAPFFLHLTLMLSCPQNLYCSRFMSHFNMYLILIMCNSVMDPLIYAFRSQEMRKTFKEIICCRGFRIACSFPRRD
T4 sequence (Q01726 whole entry): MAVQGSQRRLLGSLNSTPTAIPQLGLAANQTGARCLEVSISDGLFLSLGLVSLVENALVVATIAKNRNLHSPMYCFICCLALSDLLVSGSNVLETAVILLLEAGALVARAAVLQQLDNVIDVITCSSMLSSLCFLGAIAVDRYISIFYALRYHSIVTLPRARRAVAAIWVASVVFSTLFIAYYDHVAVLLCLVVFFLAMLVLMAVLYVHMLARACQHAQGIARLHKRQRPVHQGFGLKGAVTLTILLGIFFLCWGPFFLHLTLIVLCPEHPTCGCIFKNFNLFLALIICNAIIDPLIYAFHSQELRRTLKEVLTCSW
T3 sequence (P32245 whole entry): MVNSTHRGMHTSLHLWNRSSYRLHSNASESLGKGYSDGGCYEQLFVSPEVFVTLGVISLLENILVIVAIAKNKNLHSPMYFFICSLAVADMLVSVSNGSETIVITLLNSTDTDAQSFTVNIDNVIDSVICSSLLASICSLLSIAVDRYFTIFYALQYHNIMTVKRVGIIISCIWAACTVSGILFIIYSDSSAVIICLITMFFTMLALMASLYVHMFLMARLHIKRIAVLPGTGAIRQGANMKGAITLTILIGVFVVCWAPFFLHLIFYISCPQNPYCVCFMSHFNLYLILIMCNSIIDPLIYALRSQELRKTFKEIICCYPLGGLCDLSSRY

B1: Ac-c(Cys-Glu-His-D-2-Nal-Arg-1-Nal-Ala-Cys)-Pro-Pro-Arg-Asp-β-[…]NH2 (peptide)
peptide: Ac-CEH[d2Nal]R[1Nal]ACPPRD[βAla]RRRRRQRRR-NH2
modifications: disulfide 1-8
SMILES: CC(=O)N[C@H]1CSSC[C@@H](C(=O)N2CCC[C@H]2C(=O)N2CCC[C@H]2C(=O)N[C@@H](CCCNC(=N)N)C(=O)N[C@@H](CC(=O)O)C(=O)NCCC(=O)N[C@@H](CCCNC(=N)N)C(=O)N[C@@H](CCCNC(=N)N)C(=O)N[C@@H](CCCNC(=N)N)C(=O)N[C@@H](CCCNC(=N)N)C(=O)N[C@@H](CCCNC(=N)N)C(=O)N[C@@H](CCC(N)=O)C(=O)N[C@@H](CCCNC(=N)N)C(=O)N[C@@H](CCCNC(=N)N)C(=O)N[C@@H](CCCNC(=N)N)C(N)=O)NC(=O)[C@H](C)NC(=O)[C@H](Cc2cccc3ccccc23)NC(=O)[C@H](CCCNC(=N)N)NC(=O)[C@@H](Cc2ccc3ccccc3c2)NC(=O)[C@H](Cc2c[nH]cn2)NC(=O)[C@H](CCC(=O)O)NC1=O
For B1, the Ki in experiment [1] was found to be 59 nM; in experiment [2], 9.07 nM; in experiment [3] it was 0.293 nM; in experiment [4], 2.93 nM.

B2: Ac-c(Cys-Glu-His-D-2-Nal-Arg-1-Nal-Ala-Cys)-Pro-Pro-Lys-Asp-β-[…]NH2 (peptide)
peptide: Ac-CEH[d2Nal]R[1Nal]ACPPKD[βAla]RRKRRQRRR-NH2
modifications: disulfide 1-8
SMILES: CC(=O)N[C@H]1CSSC[C@@H](C(=O)N2CCC[C@H]2C(=O)N2CCC[C@H]2C(=O)N[C@@H](CCCCN)C(=O)N[C@@H](CC(=O)O)C(=O)NCCC(=O)N[C@@H](CCCNC(=N)N)C(=O)N[C@@H](CCCNC(=N)N)C(=O)N[C@@H](CCCCN)C(=O)N[C@@H](CCCNC(=N)N)C(=O)N[C@@H](CCCNC(=N)N)C(=O)N[C@@H](CCC(N)=O)C(=O)N[C@@H](CCCNC(=N)N)C(=O)N[C@@H](CCCNC(=N)N)C(=O)N[C@@H](CCCNC(=N)N)C(N)=O)NC(=O)[C@H](C)NC(=O)[C@H](Cc2cccc3ccccc23)NC(=O)[C@H](CCCNC(=N)N)NC(=O)[C@@H](Cc2ccc3ccccc3c2)NC(=O)[C@H](Cc2c[nH]cn2)NC(=O)[C@H](CCC(=O)O)NC1=O
For the molecule B2, the Ki in experiment [1] came to 45.3 nM; in experiment [2], 5.68 nM; in experiment [3], 0.505 nM; in experiment [4] it was 4.62 nM.

B3: Ac-c(Cys-Glu-His-D-2-Nal-Arg-2-Nal-Ala-Cys)-Pro-Pro-Lys-Asp-β-[…]NH2 (peptide)
peptide: Ac-CEH[d2Nal]R[2Nal]ACPPKD[βAla]RRKRRQRRR-NH2
modifications: disulfide 1-8
SMILES: CC(=O)N[C@H]1CSSC[C@@H](C(=O)N2CCC[C@H]2C(=O)N2CCC[C@H]2C(=O)N[C@@H](CCCCN)C(=O)N[C@@H](CC(=O)O)C(=O)NCCC(=O)N[C@@H](CCCNC(=N)N)C(=O)N[C@@H](CCCNC(=N)N)C(=O)N[C@@H](CCCCN)C(=O)N[C@@H](CCCNC(=N)N)C(=O)N[C@@H](CCCNC(=N)N)C(=O)N[C@@H](CCC(N)=O)C(=O)N[C@@H](CCCNC(=N)N)C(=O)N[C@@H](CCCNC(=N)N)C(=O)N[C@@H](CCCNC(=N)N)C(N)=O)NC(=O)[C@H](C)NC(=O)[C@H](Cc2ccc3ccccc3c2)NC(=O)[C@H](CCCNC(=N)N)NC(=O)[C@@H](Cc2ccc3ccccc3c2)NC(=O)[C@H](Cc2c[nH]cn2)NC(=O)[C@H](CCC(=O)O)NC1=O
Regarding B3, the Ki in experiment [1] was 11.3 nM; in experiment [2], 0.975 nM; in experiment [3] it was 0.549 nM; in experiment [4] it was 3.41 nM.

As a reminder, the Ki is a dissociation constant, usually derived from enzyme kinetics or from competition with a known ligand.
